Numbered stars: 1 amine (or outer) side, 2 acyl side, 3 side chain; on linkers, the order of the positions; unused ones are H or OH. Bridge positions count the residues as written; N and C are the ends. Side chains are listed from the residue outwards. Ends that are not written are not given here. * marks the point of attachment. C20 diacid = O=C(O)CCCCCCCCCCCCCCCCCCC(=O)*; γGlu = O=C(O)[C@H](CCC(=O)[*:2])N[*:1]; AEEA = NCCOCCOCC(=O)O

Assay [1] concerns the target T1, rat amylin receptor (rat calcitonin receptor + rat RAMP 3) (rat, UniProt P32214 25-516; Q9JJ73 23-147).
T1 construct: whole, on cells; Membranes prepared from transiently transfected BHK tk'ts 13 cells (Assay VI); also called rAmylin-R; rAmylin
T1 sequence (looked up) 1: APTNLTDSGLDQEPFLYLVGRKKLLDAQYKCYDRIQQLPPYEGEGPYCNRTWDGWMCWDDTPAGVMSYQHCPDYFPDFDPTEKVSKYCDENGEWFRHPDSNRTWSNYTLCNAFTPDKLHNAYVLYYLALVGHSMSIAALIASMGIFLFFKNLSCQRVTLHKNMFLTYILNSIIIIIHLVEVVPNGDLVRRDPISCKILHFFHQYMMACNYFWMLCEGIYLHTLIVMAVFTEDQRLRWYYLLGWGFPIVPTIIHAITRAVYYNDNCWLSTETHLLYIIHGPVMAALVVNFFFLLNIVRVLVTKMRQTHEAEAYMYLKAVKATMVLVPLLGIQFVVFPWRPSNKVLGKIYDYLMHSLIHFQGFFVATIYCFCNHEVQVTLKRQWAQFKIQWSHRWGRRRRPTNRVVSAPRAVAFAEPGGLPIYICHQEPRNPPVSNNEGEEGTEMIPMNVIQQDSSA
T1 sequence (looked up) 2: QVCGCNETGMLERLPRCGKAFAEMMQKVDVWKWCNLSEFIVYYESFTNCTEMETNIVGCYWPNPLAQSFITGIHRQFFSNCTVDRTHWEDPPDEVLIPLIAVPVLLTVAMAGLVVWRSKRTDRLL
As to the kind of experiment: SPA competition vs 125I-rat amylin, membranes of BHK cells with rat calcitonin receptor + rat RAMP3 (Assay VI). On the procedure:
The binding assay was performed using scintillation proximity assay (SPA) beads (RPNQ0001) from PerkinElmer and cell membranes from the Amylin 3(a)/CRE-luc cells (as described in Assay (II)) were used. Membranes were prepared in the following way; the cells were rinsed with PBS and incubated with Versene for approximately 5 min before harvesting. The cells were flushed with PBS and the cell-suspension was centrifuged for 5 min at 1000 rpm. Cells were homogenized (ultrathurrax) in a buffer containing 20 mM Na-HEPES and 10 mM EDTA (pH 7.4) and centrifuged at 20.000 rpm for 15 min. The resulting pellet was resuspended, homogenized and centrifuged (20.000 rpm, 15 min) in a buffer containing 20 mM Na-HEPES and 0.1 mM EDTA (pH 7.4, buffer 2). The resulting pellet was resuspended in buffer 2 and protein concentration was measured (BCA protein Assay, Pierce). The homogenate was kept cold during the whole procedure. The membranes were kept at −80° C. until use. The assay was performed in a 384 well Optiplate (PerkinElmer) in a total volume of 40 ul. Membranes were mixed with SPA beads. Final concentration of membranes 35 ng/μL final and SPA beads was 0.05 mg/well. Test-compounds were dissolved in DMSO and further diluted in assay buffer (50 mM Hepes, pH 7.4, 1 mM CaCl2, 5 mM MgCl₂, 0.1% OA and 0.02% Tween20). […] The final mixture was incubated with shaking at 400 rpm for 120 min at 25° C. prior to centrifugation (1500 rpm, 10 min). Samples were analyzed on TopCounter™ (Packard). The IC₅₀ was calculated using (one site binding competition analysis) GraphPad Prism5 as a measure of receptor affinity.
Cells were grown in DMEM with 10% FBS and 1% Pen/Strep. Approximately 48 hours after transfection, the cells were harvested and membranes were prepared.

Assay [2] addresses T2, human calcitonin receptor (human, UniProt P30988 25-474).
T2 construct: whole, on cells; Membranes prepared from a stably transfected BHK cell line (Assay VII); also called hCTR; hCT
T2 sequence (looked up): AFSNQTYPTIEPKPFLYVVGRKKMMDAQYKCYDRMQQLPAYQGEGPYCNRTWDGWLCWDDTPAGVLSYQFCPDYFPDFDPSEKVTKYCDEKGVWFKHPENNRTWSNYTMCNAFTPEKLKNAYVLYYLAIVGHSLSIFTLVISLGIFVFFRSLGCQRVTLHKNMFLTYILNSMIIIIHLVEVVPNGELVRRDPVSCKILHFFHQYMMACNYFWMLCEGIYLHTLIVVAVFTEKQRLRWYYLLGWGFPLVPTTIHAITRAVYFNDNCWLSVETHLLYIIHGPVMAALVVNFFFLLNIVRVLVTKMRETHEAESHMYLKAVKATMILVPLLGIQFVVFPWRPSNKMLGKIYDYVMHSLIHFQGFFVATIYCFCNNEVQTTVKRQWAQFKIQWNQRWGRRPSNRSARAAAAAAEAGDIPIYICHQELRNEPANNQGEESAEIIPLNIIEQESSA
As to the kind of experiment: ratio of binding IC50s: human calcitonin receptor / human amylin receptor (reference). The method, then: The resulting pellet was resuspended, homogenized and centrifuged (20.000 rpm, 15 min) in a buffer containing 20 mM Na-HEPES and 0.1 mM EDTA (pH 7.4, buffer 2). The resulting pellet was resuspended in buffer 2 and protein concentration was measured (BCA protein Assay, Pierce). The homogenate was kept cold during the whole procedure. The membranes were kept at −80° C. until use. The assay was performed in a 384 well Optiplate (PerkinElmer) in a total volume of 40 ul. Membranes were mixed with SPA beads. Final concentration of membranes 35 ng/μL final and SPA beads was 0.05 mg/well. Test-compounds were dissolved in DMSO and further diluted in assay buffer (50 mM Hepes, pH 7.4, 1 mM CaCl2, 5 mM MgCl₂, 0.1% OA and 0.02% Tween20). […] The final mixture was incubated with shaking at 400 rpm for 120 min at 25° C. prior to centrifugation (1500 rpm, 10 min). Samples were analyzed on TopCounter™ (Packard). The IC₅₀ was calculated using (one site binding competition analysis) GraphPad Prism5 as a measure of receptor affinity.
Membranes were prepared in the following way; the cells were rinsed with PBS and incubated with Versene for approximately 5 min before harvesting. The cells were flushed with PBS and the cell-suspension was centrifuged for 5 min at 1000 rpm. Cells were homogenized (Ultrathurrax) in a buffer containing 20 mM Na-HEPES and 10 mM EDTA (pH 7.4) and centrifuged at 20.000 rpm for 15 min. The resulting pellet was resuspended, homogenized and centrifuged (20.000 rpm, 15 min) in a buffer containing 20 mM Na-HEPES and 0.1 mM EDTA (pH 7.4, buffer 2). The resulting pellet was resuspended in buffer 2 and protein concentration was measured (BCA protein Assay, Pierce). The homogenate was kept cold during the whole procedure. The membranes were kept at −80° C. until use. Assay was performed in a 384 well Optiplate (PerkinElmer) in a total volume of 40 ul. Membranes were mixed with SPA beads.

Assay [3] concerns the target T3, rat calcitonin receptor (rat, UniProt P32214 25-516).
T3 construct: whole, on cells; Membranes prepared from transiently transfected BHK tk'ts 13 cells (Assay VIII); also called rCTR; rCT
T3 sequence (looked up): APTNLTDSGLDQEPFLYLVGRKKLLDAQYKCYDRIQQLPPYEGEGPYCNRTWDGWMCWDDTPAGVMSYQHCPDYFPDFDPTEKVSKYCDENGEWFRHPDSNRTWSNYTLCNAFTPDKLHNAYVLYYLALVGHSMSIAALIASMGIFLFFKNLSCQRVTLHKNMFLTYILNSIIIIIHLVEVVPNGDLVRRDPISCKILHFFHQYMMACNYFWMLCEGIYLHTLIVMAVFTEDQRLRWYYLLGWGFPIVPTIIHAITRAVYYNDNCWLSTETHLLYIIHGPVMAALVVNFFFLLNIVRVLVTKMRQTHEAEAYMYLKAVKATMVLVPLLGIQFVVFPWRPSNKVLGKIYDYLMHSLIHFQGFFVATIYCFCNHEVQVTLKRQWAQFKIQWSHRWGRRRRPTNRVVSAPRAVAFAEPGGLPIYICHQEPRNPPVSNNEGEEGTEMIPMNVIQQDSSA
In words: ratio of binding IC50s: rat calcitonin receptor / rat amylin receptor (reference).

For assay [4], the target named is T3, rat calcitonin receptor. In words: SPA competition vs 125I-calcitonin, membranes of BHK cells with rat calcitonin receptor (Assay VIII).

B1: N^ε1-[2-[2-[2-[[(4S)-4-carboxy-4-(19-carboxynonadecanoylamino)butanoyl]amino]ethoxy]ethoxy]acetyl]-[Arg14,Arg17,Pro21,Pro27,Pro31]-h-amylin (peptide)
peptide: K([AEEA-γGlu-C20 diacid])CNTATCATQRLARFLRHSSPNFGAIPSSTPVGSNTY-NH2
modifications: disulfide 2-7; N-terminus assumed
SMILES: CC[C@H](C)[C@H](NC(=O)[C@H](C)NC(=O)CNC(=O)[C@H](Cc1ccccc1)NC(=O)[C@H](CC(N)=O)NC(=O)[C@@H]1CCCN1C(=O)[C@H](CO)NC(=O)[C@H](CO)NC(=O)[C@H](Cc1c[nH]cn1)NC(=O)[C@H](CCCNC(=N)N)NC(=O)[C@H](CC(C)C)NC(=O)[C@H](Cc1ccccc1)NC(=O)[C@H](CCCNC(=N)N)NC(=O)[C@H](C)NC(=O)[C@H](CC(C)C)NC(=O)[C@H](CCCNC(=N)N)NC(=O)[C@H](CCC(N)=O)NC(=O)[C@@H](NC(=O)[C@H](C)NC(=O)[C@@H]1CSSC[C@H](NC(=O)[C@@H](N)CCCCNC(=O)COCCOCCNC(=O)CC[C@H](NC(=O)CCCCCCCCCCCCCCCCCCC(=O)O)C(=O)O)C(=O)N[C@@H](CC(N)=O)C(=O)N[C@@H]([C@@H](C)O)C(=O)N[C@@H](C)C(=O)N[C@@H]([C@@H](C)O)C(=O)N1)[C@@H](C)O)C(=O)N1CCC[C@H]1C(=O)N[C@@H](CO)C(=O)N[C@@H](CO)C(=O)N[C@H](C(=O)N1CCC[C@H]1C(=O)N[C@H](C(=O)NCC(=O)N[C@@H](CO)C(=O)N[C@@H](CC(N)=O)C(=O)N[C@H](C(=O)N[C@@H](Cc1ccc(O)cc1)C(N)=O)[C@@H](C)O)C(C)C)[C@@H](C)O
notes: Analogue of human amylin; also called compound 64
Regarding B1, the half-inhibitory concentration (IC50) in assay [1] came out at 0.00197 µM; in the assay with rat calcitonin receptor [4], 0.128 µM. For the same molecule, the “Ratio hCT/hAmylin binding” value in assay [2] came to 126. Further, the “Ratio rCT/rAmylin binding” value in the assay with rat calcitonin receptor [3] was found to be 64.7.

B2: N^ε1-[2-[2-[2-[[(4S)-4-carboxy-4-(19-carboxynonadecanoylamino)butanoyl]amino]ethoxy]ethoxy]acetyl]-[Arg17,Pro21,Pro27,Arg34]-h-amylin (peptide)
peptide: K([AEEA-γGlu-C20 diacid])CNTATCATQRLANFLRHSSPNFGAIPSSTNVGRNTY-NH2
modifications: disulfide 2-7; N-terminus assumed
SMILES: CC[C@H](C)[C@H](NC(=O)[C@H](C)NC(=O)CNC(=O)[C@H](Cc1ccccc1)NC(=O)[C@H](CC(N)=O)NC(=O)[C@@H]1CCCN1C(=O)[C@H](CO)NC(=O)[C@H](CO)NC(=O)[C@H](Cc1c[nH]cn1)NC(=O)[C@H](CCCNC(=N)N)NC(=O)[C@H](CC(C)C)NC(=O)[C@H](Cc1ccccc1)NC(=O)[C@H](CC(N)=O)NC(=O)[C@H](C)NC(=O)[C@H](CC(C)C)NC(=O)[C@H](CCCNC(=N)N)NC(=O)[C@H](CCC(N)=O)NC(=O)[C@@H](NC(=O)[C@H](C)NC(=O)[C@@H]1CSSC[C@H](NC(=O)[C@@H](N)CCCCNC(=O)COCCOCCNC(=O)CC[C@H](NC(=O)CCCCCCCCCCCCCCCCCCC(=O)O)C(=O)O)C(=O)N[C@@H](CC(N)=O)C(=O)N[C@@H]([C@@H](C)O)C(=O)N[C@@H](C)C(=O)N[C@@H]([C@@H](C)O)C(=O)N1)[C@@H](C)O)C(=O)N1CCC[C@H]1C(=O)N[C@@H](CO)C(=O)N[C@@H](CO)C(=O)N[C@H](C(=O)N[C@@H](CC(N)=O)C(=O)N[C@H](C(=O)NCC(=O)N[C@@H](CCCNC(=N)N)C(=O)N[C@@H](CC(N)=O)C(=O)N[C@H](C(=O)N[C@@H](Cc1ccc(O)cc1)C(N)=O)[C@@H](C)O)C(C)C)[C@@H](C)O
notes: Analogue of human amylin; also called compound 78
Consider B2, for which the results for the IC50 (in assay [1]; with rat calcitonin receptor [4]) were 0.0013 µM and 0.0906 µM, respectively. Further, the “Ratio hCT/hAmylin binding” value in assay [2] turned out to be 60.7. Besides, in the assay with rat calcitonin receptor [3], the “Ratio rCT/rAmylin binding” value worked out at 69.9.

B3: N^ε1-[2-[2-[2-[[(4S)-4-carboxy-4-(19-carboxynonadecanoylamino)butanoyl]amino]ethoxy]ethoxy]acetyl]-[Arg14,Arg17,Pro21,Pro27]-h-amylin (peptide)
peptide: K([AEEA-γGlu-C20 diacid])CNTATCATQRLARFLRHSSPNFGAIPSSTNVGSNTY-NH2
modifications: disulfide 2-7; N-terminus assumed
SMILES: CC[C@H](C)[C@H](NC(=O)[C@H](C)NC(=O)CNC(=O)[C@H](Cc1ccccc1)NC(=O)[C@H](CC(N)=O)NC(=O)[C@@H]1CCCN1C(=O)[C@H](CO)NC(=O)[C@H](CO)NC(=O)[C@H](Cc1c[nH]cn1)NC(=O)[C@H](CCCNC(=N)N)NC(=O)[C@H](CC(C)C)NC(=O)[C@H](Cc1ccccc1)NC(=O)[C@H](CCCNC(=N)N)NC(=O)[C@H](C)NC(=O)[C@H](CC(C)C)NC(=O)[C@H](CCCNC(=N)N)NC(=O)[C@H](CCC(N)=O)NC(=O)[C@@H](NC(=O)[C@H](C)NC(=O)[C@@H]1CSSC[C@H](NC(=O)[C@@H](N)CCCCNC(=O)COCCOCCNC(=O)CC[C@H](NC(=O)CCCCCCCCCCCCCCCCCCC(=O)O)C(=O)O)C(=O)N[C@@H](CC(N)=O)C(=O)N[C@@H]([C@@H](C)O)C(=O)N[C@@H](C)C(=O)N[C@@H]([C@@H](C)O)C(=O)N1)[C@@H](C)O)C(=O)N1CCC[C@H]1C(=O)N[C@@H](CO)C(=O)N[C@@H](CO)C(=O)N[C@H](C(=O)N[C@@H](CC(N)=O)C(=O)N[C@H](C(=O)NCC(=O)N[C@@H](CO)C(=O)N[C@@H](CC(N)=O)C(=O)N[C@H](C(=O)N[C@@H](Cc1ccc(O)cc1)C(N)=O)[C@@H](C)O)C(C)C)[C@@H](C)O
notes: Analogue of human amylin; also called compound 82
Consider B3, for which the IC50 in assay [1] worked out at 0.00164 µM; with rat calcitonin receptor [4], 0.143 µM. Further, the “Ratio hCT/hAmylin binding” value in assay [2] worked out at 140. Moreover, in the assay with rat calcitonin receptor [3], the “Ratio rCT/rAmylin binding” value was 87.

The values above are taken from patent US20140087995A1 (published 2014).
